According to article PMC9104551:

System: XylR (ROK family transcriptional regulator) (Paenibacillus polymyxa ATCC842)
Assay: EMSA
Settings: Chemiluminescent EMSA Kit (Beyotime), biotinylated PCR probes; XylR 0.02-0.1 g/L (protein:probe 20.9-104.4) for BST/DTE; buffer, pH, temperature not stated

Row | Substance | binding signal [% bound]
1 | BST 17A (G71A) | 1.9
2 | -2T (A/T to T/A outside site) | 65.4
3 | -1G (A/T to G/C outside site) | 64.5
4 | -1T (A/T to T/A outside site) | 61.3
5 | -2G (A/T to G/C outside site) | 60.8
6 | BST 17T (G71T) | 52.1
7 | BST 1T (A/T to T/A) | 30
8 | -1C (A/T to C/G outside site) | 50.8
9 | -2C (A/T to C/G outside site) | 57.6
10 | BST 1C (A/T to C/G) | 19.8
11 | BST (full predicted site) | 70
12 | BST 17C (G71C) | 63.5
13 | BST 1G (A/T to G/C) | 18.8
